Assay results taken from paper PMC3084036 (Journal of molecular biology, 2011).
One block for each molecule: values may come before it.

Key:
[1] = target: chicken VE-cadherin EC1-2, wild type (chicken); test: AUC
[2] = target: human VE-cadherin EC1-2, wild type (human); test: AUC
[3] = target: human VE-cadherin EC1-5 ectodomain, wild type, glycosylated (human); test: AUC
[4] = target: human VE-cadherin EC3-4, wild type, bacterially produced (human); test: SEC
[5] = target: human VE-cadherin EC3-4, wild type, bacterially produced (human); test: AUC
[6] = target: mouse VE-cadherin EC1-2, wild type (mouse); test: AUC
[7] = target: mouse cadherin-9 EC1-2, wild type (mouse); test: AUC
[8] = target: mouse cadherin-10 EC1-2, wild type (mouse); test: AUC
AUC = target: the molecule itself; test: AUC

Kd [1]: 1.63 µM
Molecule: chicken VE-cadherin EC1-2, wild type (domain or fragment)

Kd [2]: 4.38 µM
Molecule: human VE-cadherin EC1-2, wild type (domain or fragment)

Kd [3]: 1.03 µM
Molecule: human VE-cadherin EC1-5 ectodomain, wild type, glycosylated (domain or fragment)

stoichiometry N [4]: 2 | Kd [5]: 1.93 µM
Molecule: human VE-cadherin EC3-4, wild type, bacterially produced (domain or fragment)

Kd [6]: 2.22 µM
Molecule: mouse VE-cadherin EC1-2, wild type (domain or fragment)

Kd [7]: 17 µM
Molecule: mouse cadherin-9 EC1-2, wild type (domain or fragment)

Kd [8]: 42.2 µM
Molecule: mouse cadherin-10 EC1-2, wild type (domain or fragment)

B1: chicken VE-cadherin EC1-5 ectodomain, wild type, glycosylated (domain or fragment)
chain: DWIWNRMHIREEIDSPLPHHVGKLTSSVGNKNAMYIIEGESANTIFKVQGYDGDIYAFERLDREKKAEYELTAHIIDRRNNRSLEPPSKFIIKVSDINDNAPIFVQKIFNGSVPEMSRLGTSVTKVTAEDADDPTVAGHATVTYQIIKGNEYFTVDDSGVIFTARADLDRESQSAYEIIVKAKDALGLTGESSTATVIIRLTDINDNFPVFKHPSFHFRVPENISVGGEVGRVKVEDIDEPQHRNTKYSFVRGDYRDTFEIIANPFTNEGIIRPKKPLDFEKVAEYRFDIEATDHNVNPAYYKPGGSRSISTITIEVTDVDEPPVFTKLSYEFKVRENDPEIKTLGSVWAHDPDAAKRKIRFARRRASPNGDYVRVSDSGIIQLPKPLDREFSSLYNITVAAQEILEDGRLSDRESHAQVHVIVTDENDNAPELVYPEEPRVCENAAPGKVIIRISATDKDEISPGGFFTYSLTTEDSNFSLTENPDNTANITVKDGQFNRELAKIHYLPVIISDNGNPELSSTNTLVISVCKCNEKGDFTFCEE
modifications: glycosylated (N-linked and O-linked sugar)
Kd (AUC): 1.14 ± 0.04 µM

B2: chicken cadherin-6b EC1-2, wild type (domain or fragment)
chain: SWMWNQFFLLEEYTGTDYQYVGKLHSDQDKGDGSLKYILSGDGAGDLFIINENTGDIQATKRLDREEKPVYILRAQAINRRTGRPVEPESEFIIKIHDINDNEPMFTKDVYNASIPEMSDVGTFVVQVTATDADDPTYGNSAKVVYSILQGQPYFSVESETGIIKTALLNMDRENREQYQVVIQAKDMGGQMGGLSGTTTVNITLTDVNDNPPRF
Kd (AUC): 9.2 ± 0.6 µM

B3: mouse cadherin-8 EC1-3, wild type (domain or fragment)
chain: GWVWNQMFVLEEFSGPEPILVGRLHTDLDPGSKKIKYILSGDGAGTIFQINDITGDIHAIKRLDREEKAEYTLTAQAVDFETNKPLEPPSEFIIKVQDINDNAPEFLNGPYHATVPEMSILGTSVTNVTATDADDPVYGNSAKLVYSILEGQPYFSIEPETAIIKTALPNMDREAKEEYLVVIQAKDMGGHSGGLSGTTTLTVTLTDVNDNPPKFAQSLYHFSVPEDVVLGTAIGRVKANDQDIGENAQSSYDIIDGDGTALFEITSDAQAQDGVIRLRKPLDFETKKSYTLKVEAANIHIDPRFSSRGPFKDTATVKIVVEDADEPPVF
Kd (AUC): 15 ± 0.4 µM

B4: mouse cadherin-11 EC1-2, wild type (domain or fragment)
chain: GWVWNQFFVIEEYTGPDPVLVGRLHSDIDSGDGNIKYILSGEGAGTIFVIDDKSGNIHATKTLDREERAQYTLMAQAVDRDTNRPLEPPSEFIVKVQDINDNPPEFLHEIYHANVPERSNVGTSVIQVTASDADDPTYGNSAKLVYSILEGQPYFSVEAQTGIIRTALPNMDREAKEEYHVVIQAKDMGGHMGGLSGTTKVTITLTD
Kd (AUC): 33.8 ± 0.2 µM
